Measurements from publication PMC5662768 (Scientific Reports, 2017).

B1: CD38-specific nanobody MU1053 (family 14), monovalent, from HEK-6E cells (VHH)
VHH: DVQLQESGGGLVQAGGSLRLSCTGSGRTFRNYPMAWFRQAPGKEREFVAGITWVGASTLYADFAKGRFTISRDNAKNTVYLQMNSLKPEDTAVYSCAAGRGIVAGRIPAEYADWGQGTQVTVSS
notes: structure of MU1053 with CD38 is in PDB 5F1O (nanobody chain); also called l-15.3a; source: HEK-6E, transiently transfected (pCSE2.5), purified (Ni-NTA); not shown: His6, C-terminal, kept; Myc, C-terminal, kept
B2: single chain variable fragment (scFv) of daratumumab (scFv, V domains shown)
VH: EVQLLESGGGLVQPGGSLRLSCAVSGFTFNSFAMSWVRQAPGKGLEWVSAISGSGGGTYYADSVKGRFTISRDNSKNTLYLQMNSLRAEDTAVYFCAKDKILWFGEPVFDYWGQGTLVTVSS
VL: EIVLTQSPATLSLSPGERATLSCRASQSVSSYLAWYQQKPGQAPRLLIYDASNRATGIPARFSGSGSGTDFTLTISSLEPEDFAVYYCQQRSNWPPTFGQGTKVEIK
notes: VH domain of daratumumab; 15GS linker; VL domain of daratumumab; Order VH - linker - VL as the methods tell it; also called Dara scFv; Daratumumab scFv; source: HEK-6E, transiently transfected (pCSE2.5)

Target: T1, glycosylated extracellular domain of human CD38 (aa 46-300) (Homo sapiens, UniProt P28907, glycosylation sites intact (glycosylated))
T1 construct: CD38, human, extracellular domain aa 46-300 with intact glycosylation sites; Amine-coupled to AR2G biosensors in the BLI experiments; also called recombinant human CD38; ectodomain of human CD38; source: secretory protein from the pCSE2.5 vector
Assay: BLI; Octet RED384; recombinant human CD38 amine-coupled to AR2G biosensors; 100 nM and 1 uM nanobody, 5 min association, 10 min dissociation; 25 C; HBS-EP+ pH 7.4; fit 1:1; off-rates only
Conditions: both partners purified

Binder	koff [s⁻¹]
B1	0.0009
B2	0.0044
